± gives the uncertainty stated by the source.

A short description of this data set: self-splicing fitness, log relative to wild type (ln ratio); higher = more splicing; Tetrahymena group I intron in knt gene, E. coli kanamycin selection, DiMSum; sequences stand for … in CUCUCU…GGAGGGAAAAGUUAUCAGGCAUGCACCUGGUAGCUAGUCUUUAAACCAAUAGAUUGCAUCGGUUUAAAAGGCAAGACCGUCAAAUUGCGGGAAAGGGGUCAACAGCCGUUCAGUACCAAGUCUCAGGGGAAACUUUGAGAUGGCCUUGCAAAGGGUAUGGUAAUAAGCUGACGGACAUGGUCCUAACCACGCAGCCAAGUCCUAAGUCAACAGAUCUUCUGUUGAUAUGGAUGCAGUUCACAGACUAAAUGUCGGUCGGGGAAGAUGUAUUCUUCUCAUAAGAUAUAGUCGGACCUCUCCUUAAUGGGAGCUAGCGGAUGAAGUGAUGCAACACUGGAGCCGCUGGGAACUAAUUUGUAUGCGAAAGUAUAUUGAUUAGUUUUGGAGUACUCGUGGUCG
In outline:
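Colonies from six replicate transformations of E. coli BL21(DE3) were pooled and amplicon-sequenced on an Illumina HiSeq 2500. The library placed an intron with all eight P1ex-region nucleotides randomised inside the knt kanamycin-resistance gene on pET-22b(+), and cells grew overnight at 37°C or 30°C on LB agar with or without 25 μg/mL kanamycin (plus 100 μg/mL carbenicillin, 50 μM IPTG, 0.2% rhamnose). Fitness is the DiMSum error-weighted combination of wild-type-normalised replicate fold changes, kanamycin versus none.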

For the sequence CAGAAGCAAUAUUACGGCUG, the “self-splicing fitness (ln)” value was -2.29 ± 0.19 (30 °C) and -2.49 ± 0.23 (37 °C).

For the sequence UAGCAGCAAUAUUACGAUAC, the “self-splicing fitness (ln)” value was -4.05 ± 0.4 (30 °C) and -2.2 ± 0.33 (37 °C).

As for GGCAAGCAAUAUUACGCACA, the “self-splicing fitness (ln)” value by setting is: (30 °C) -0.684 ± 0.09; (37 °C) 0.564 ± 0.11.

Take AAUAAGCAAUAUUACGAAGU: the “self-splicing fitness (ln)” value (30 °C) is -3.44 ± 0.18 and the “self-splicing fitness (ln)” value (37 °C) was -1.94 ± 0.17.

As for CUGUAGCAAUAUUACGUAAA, the “self-splicing fitness (ln)” value (30 °C) was -3.52 ± 0.3 and the “self-splicing fitness (ln)” value (37 °C) was -1.6 ± 0.23.

For the sequence UGGGAGCAAUAUUACGAUCG, the “self-splicing fitness (ln)” value is -1.33 ± 0.13 (30 °C) and -0.561 ± 0.15 (37 °C).

On to UGAAAGCAAUAUUACGAACC, for which the “self-splicing fitness (ln)” value reads like this: (30 °C) -1.55 ± 0.17; (37 °C) -1.16 ± 0.22.

Consider ACAGAGCAAUAUUACGUGAC, for which the “self-splicing fitness (ln)” value runs as follows: (30 °C) -3.76 ± 0.24; (37 °C) -1.6 ± 0.17.

Regarding CAAUAGCAAUAUUACGGGGC, the “self-splicing fitness (ln)” value (30 °C) was -2.73 ± 0.22 and the “self-splicing fitness (ln)” value (37 °C) is -2.45 ± 0.23.

Take AGUUAGCAAUAUUACGUAUA: the “self-splicing fitness (ln)” value was -3.01 ± 0.19 (30 °C) and -1.57 ± 0.16 (37 °C).

In the case of UUUUAGCAAUAUUACGAGAG, the “self-splicing fitness (ln)” value is, setting by setting: (30 °C) -1.12 ± 0.18; (37 °C) -0.225 ± 0.21.

For the sequence CCACAGCAAUAUUACGGGUC, the “self-splicing fitness (ln)” value (30 °C) is -3.86 ± 0.18 and the “self-splicing fitness (ln)” value (37 °C) is -2.89 ± 0.17.

In the case of GAGUAGCAAUAUUACGGAAA, the “self-splicing fitness (ln)” value was -3.15 ± 0.17 (30 °C) and -2.03 ± 0.12 (37 °C).

In the case of AAAGAGCAAUAUUACGUCCG, the “self-splicing fitness (ln)” value is -3.14 ± 0.21 (30 °C) and -1.86 ± 0.35 (37 °C).

With GCAAAGCAAUAUUACGGGAU, the “self-splicing fitness (ln)” value reads like this: (30 °C) -1.93 ± 0.067; (37 °C) -0.98 ± 0.097.

For CACUAGCAAUAUUACGUUGG, the “self-splicing fitness (ln)” value is -2.27 ± 0.11 (30 °C) and -2.03 ± 0.16 (37 °C).

As for AAUCAGCAAUAUUACGCAUA, the “self-splicing fitness (ln)” value runs as follows: (30 °C) -0.272 ± 0.085; (37 °C) -0.142 ± 0.13.

With AUCGAGCAAUAUUACGCAUU, the “self-splicing fitness (ln)” value runs as follows: (30 °C) -1.6 ± 0.24; (37 °C) -3.11 ± 0.3.

For ACGCAGCAAUAUUACGCGAC, the “self-splicing fitness (ln)” value by setting is: (30 °C) -2.01 ± 0.15; (37 °C) -2.24 ± 0.21.

Consider GAACAGCAAUAUUACGGUGG, for which the “self-splicing fitness (ln)” value by setting is: (30 °C) -2 ± 0.095; (37 °C) -1.19 ± 0.1.

Consider GUGAAGCAAUAUUACGGCCC, for which, where the note is “30 °C”, the “self-splicing fitness (ln)” value is -0.145 ± 0.18.

With UGUAAGCAAUAUUACGUGAA, the “self-splicing fitness (ln)” value is, setting by setting: (30 °C) -1.8 ± 0.16; (37 °C) 0.0061 ± 0.14.

For the sequence AAUUAGCAAUAUUACGAAUA, the “self-splicing fitness (ln)” value is -1.67 ± 0.41 (30 °C) and 0.49 ± 0.3 (37 °C).

On to AGCGAGCAAUAUUACGCUGC, for which the “self-splicing fitness (ln)” value (30 °C) is -1.51 ± 0.39 and the “self-splicing fitness (ln)” value (37 °C) is -2.23 ± 0.42.

With CCCGAGCAAUAUUACGGCAA, the “self-splicing fitness (ln)” value (30 °C) was -3.03 ± 0.35 and the “self-splicing fitness (ln)” value (37 °C) is -2.32 ± 0.22.

As for UAUAAGCAAUAUUACGCCCG, the “self-splicing fitness (ln)” value by setting is: (30 °C) 0.0737 ± 0.21; (37 °C) 0.591 ± 0.3.

Turning to UACCAGCAAUAUUACGAACU, the “self-splicing fitness (ln)” value is, setting by setting: (30 °C) -2.26 ± 0.1; (37 °C) -0.819 ± 0.11.

As to AGCCAGCAAUAUUACGUUCC, the “self-splicing fitness (ln)” value is -2.02 ± 0.17 (30 °C) and -2.04 ± 0.28 (37 °C).

As to AUUGAGCAAUAUUACGGAAU, the “self-splicing fitness (ln)” value is, setting by setting: (30 °C) -1.59 ± 0.17; (37 °C) -1.28 ± 0.2.

With UAGUAGCAAUAUUACGGUCC, the “self-splicing fitness (ln)” value (37 °C) is -1.53 ± 0.35.

Regarding CUCAAGCAAUAUUACGUCGG, the “self-splicing fitness (ln)” value runs as follows: (30 °C) -2.02 ± 0.1; (37 °C) -1.27 ± 0.11.

In the case of GUCGAGCAAUAUUACGGAAC, the “self-splicing fitness (ln)” value is -3.01 ± 0.19 (30 °C) and -1.9 ± 0.2 (37 °C).

Consider AGAUAGCAAUAUUACGAAUA, for which the “self-splicing fitness (ln)” value runs as follows: (30 °C) -2.76 ± 0.49; (37 °C) -2.16 ± 0.48.

For CCGCAGCAAUAUUACGCUUC, the “self-splicing fitness (ln)” value (30 °C) was -4.17 ± 0.46.

Take ACUUAGCAAUAUUACGCCCC: the “self-splicing fitness (ln)” value (30 °C) was -0.135 ± 0.33.

As to ACUCAGCAAUAUUACGUAUA, the “self-splicing fitness (ln)” value was -2.19 ± 0.11 (30 °C) and -1.11 ± 0.1 (37 °C).

Turning to UCUAAGCAAUAUUACGAGAA, the “self-splicing fitness (ln)” value runs as follows: (30 °C) -3.17 ± 0.5; (37 °C) -1.69 ± 0.39.

As to AAACAGCAAUAUUACGUUCA, the “self-splicing fitness (ln)” value runs as follows: (30 °C) -0.713 ± 0.045; (37 °C) -0.557 ± 0.063.

With AGAAAGCAAUAUUACGCGGA, the “self-splicing fitness (ln)” value reads like this: (30 °C) -2.26 ± 0.13; (37 °C) -0.649 ± 0.13.

As to CUUAAGCAAUAUUACGAUCA, the “self-splicing fitness (ln)” value was -2.93 ± 0.26 (30 °C) and -3.2 ± 0.33 (37 °C).

On to UCUCAGCAAUAUUACGCCUC, for which the “self-splicing fitness (ln)” value (30 °C) was -3.12 ± 0.27 and the “self-splicing fitness (ln)” value (37 °C) is -2.27 ± 0.29.

In the case of CGUGAGCAAUAUUACGACUU, the “self-splicing fitness (ln)” value was -2.96 ± 0.16 (30 °C) and -1.71 ± 0.19 (37 °C).

GCUCAGCAAUAUUACGAAGU: the “self-splicing fitness (ln)” value is, setting by setting: (30 °C) -1.63 ± 0.16; (37 °C) -0.416 ± 0.15.

Take CACGAGCAAUAUUACGCAUU: the “self-splicing fitness (ln)” value is -4.65 ± 0.41 (30 °C) and -1.95 ± 0.3 (37 °C).

As for CCGUAGCAAUAUUACGUGCG, the “self-splicing fitness (ln)” value reads like this: (30 °C) -2.39 ± 0.11; (37 °C) -1.68 ± 0.12.

For GUGAAGCAAUAUUACGAAGC, the “self-splicing fitness (ln)” value (30 °C) was -2.06 ± 0.08 and the “self-splicing fitness (ln)” value (37 °C) is -1.06 ± 0.11.

Regarding GGACAGCAAUAUUACGGGUA, the “self-splicing fitness (ln)” value by setting is: (30 °C) -2.33 ± 0.11; (37 °C) -1.67 ± 0.093.

Regarding UGUGAGCAAUAUUACGUACG, the “self-splicing fitness (ln)” value runs as follows: (30 °C) -0.814 ± 0.1; (37 °C) -0.164 ± 0.12.

Regarding AGCCAGCAAUAUUACGGCAG, the “self-splicing fitness (ln)” value (30 °C) is -1.01 ± 0.065 and the “self-splicing fitness (ln)” value (37 °C) was -1.18 ± 0.092.

With UGUUAGCAAUAUUACGAUCG, the “self-splicing fitness (ln)” value was -0.427 ± 0.26 (30 °C) and -0.0339 ± 0.28 (37 °C).

CGUUAGCAAUAUUACGCCCA: the “self-splicing fitness (ln)” value is, setting by setting: (30 °C) -1.43 ± 0.16; (37 °C) 0.14 ± 0.18.

On to GAAGAGCAAUAUUACGGCCG, for which the “self-splicing fitness (ln)” value was -2.63 ± 0.42 (30 °C) and -0.854 ± 0.29 (37 °C).

With CACCAGCAAUAUUACGACCU, the “self-splicing fitness (ln)” value reads like this: (30 °C) -3.45 ± 0.17; (37 °C) -1.35 ± 0.17.

With GUUGAGCAAUAUUACGUAAC, the “self-splicing fitness (ln)” value by setting is: (30 °C) -2.16 ± 0.42; (37 °C) -2.88 ± 0.3.

As to UGUGAGCAAUAUUACGAUAA, the “self-splicing fitness (ln)” value (30 °C) was -2.33 ± 0.16 and the “self-splicing fitness (ln)” value (37 °C) was -1.92 ± 0.21.

CAACAGCAAUAUUACGUUUA: the “self-splicing fitness (ln)” value runs as follows: (30 °C) -1.62 ± 0.086; (37 °C) -0.887 ± 0.073.

Regarding GGACAGCAAUAUUACGGGAU, the “self-splicing fitness (ln)” value is, setting by setting: (30 °C) -2.05 ± 0.087; (37 °C) -0.814 ± 0.1.

Turning to GCGUAGCAAUAUUACGUGGG, the “self-splicing fitness (ln)” value (30 °C) is -3.84 ± 0.22 and the “self-splicing fitness (ln)” value (37 °C) is -3.04 ± 0.24.

For CUAUAGCAAUAUUACGCUGA, the “self-splicing fitness (ln)” value is, setting by setting: (30 °C) -2.84 ± 0.24; (37 °C) -2.32 ± 0.29.

With UCUUAGCAAUAUUACGAGCA, the “self-splicing fitness (ln)” value reads like this: (30 °C) -0.901 ± 0.15; (37 °C) -0.00766 ± 0.15.

As for UUGGAGCAAUAUUACGAUGU, the “self-splicing fitness (ln)” value was -1.71 ± 0.44 (30 °C) and -1.83 ± 0.35 (37 °C).
